Experimental data as given in paper PMC10746543 (2023).

Legend:
_(Alexa488)DDB1 [1] = biological target: T1, _(Alexa488)DDB1 (human, UniProt Q16531 1-1140, SpyTag joined to SpyCatcher (S50C) labelled with Alexa488–C5–maleimide); assay: FRET; compound Z11 titration
_(Alexa488)DDB1 [2] = biological target: T1, _(Alexa488)DDB1; assay: FRET; compound dCeMM3 titration
_(Alexa488)DDB1 [3] = biological target: T1, _(Alexa488)DDB1; assay: FRET; compound Z12 titration
_(Alexa488)DDB1 [4] = biological target: T1, _(Alexa488)DDB1; assay: FRET; compound Z7 titration
_(Alexa488)DDB1 [5] = biological target: T1, _(Alexa488)DDB1; assay: FRET; compound HQ461 titration

T1 sequence (Q16531 whole entry): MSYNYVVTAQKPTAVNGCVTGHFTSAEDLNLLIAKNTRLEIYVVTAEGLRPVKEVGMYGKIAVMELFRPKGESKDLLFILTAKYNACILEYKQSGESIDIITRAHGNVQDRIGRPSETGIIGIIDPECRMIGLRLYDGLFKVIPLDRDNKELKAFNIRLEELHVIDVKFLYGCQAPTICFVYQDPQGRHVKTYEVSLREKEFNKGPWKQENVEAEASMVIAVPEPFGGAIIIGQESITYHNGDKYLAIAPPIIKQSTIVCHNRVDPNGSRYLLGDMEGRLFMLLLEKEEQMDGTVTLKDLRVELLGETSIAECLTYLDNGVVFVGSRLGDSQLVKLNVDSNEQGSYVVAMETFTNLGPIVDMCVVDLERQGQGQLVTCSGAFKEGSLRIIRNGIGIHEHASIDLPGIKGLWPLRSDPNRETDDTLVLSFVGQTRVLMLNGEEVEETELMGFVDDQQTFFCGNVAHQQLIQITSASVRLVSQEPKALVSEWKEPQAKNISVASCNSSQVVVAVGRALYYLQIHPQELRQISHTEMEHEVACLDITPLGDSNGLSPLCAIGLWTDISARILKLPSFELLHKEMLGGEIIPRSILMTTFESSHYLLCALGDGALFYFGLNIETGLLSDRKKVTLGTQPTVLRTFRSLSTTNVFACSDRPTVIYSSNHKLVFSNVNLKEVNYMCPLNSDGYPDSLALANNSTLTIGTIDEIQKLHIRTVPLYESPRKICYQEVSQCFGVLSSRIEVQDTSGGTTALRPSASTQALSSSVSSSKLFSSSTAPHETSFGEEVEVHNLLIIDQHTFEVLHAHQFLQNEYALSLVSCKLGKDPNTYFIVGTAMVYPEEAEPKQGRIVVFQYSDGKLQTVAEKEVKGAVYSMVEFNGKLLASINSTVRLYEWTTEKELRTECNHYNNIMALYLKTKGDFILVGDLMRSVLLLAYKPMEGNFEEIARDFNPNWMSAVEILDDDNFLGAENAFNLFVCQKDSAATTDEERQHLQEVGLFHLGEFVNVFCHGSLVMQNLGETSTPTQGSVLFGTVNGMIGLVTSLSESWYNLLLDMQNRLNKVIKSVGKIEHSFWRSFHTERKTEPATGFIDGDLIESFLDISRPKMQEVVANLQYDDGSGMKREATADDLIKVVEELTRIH

- EC50 (_(Alexa488)DDB1 [1]): 178 nM
- EC50 (_(Alexa488)DDB1 [2]): 263 nM
- EC50 (_(Alexa488)DDB1 [3]): 833 nM
- EC50 (_(Alexa488)DDB1 [4]): 303 nM
- EC50 (_(Alexa488)DDB1 [5]): 43 nM
B1: CDK12–cyclin K_(biotin) (complex)
chain 1: not shown
chain 2: MKENKENSSPSVTSANLDHTKPCWYWDKKDLAHTPSQLEGLDPATEARYRREGARFIFDVGTRLGLHYDTLATGIIYFHRFYMFHSFKQFPRYVTGACCLFLAGKVEETPKKCKDIIKTARSLLNDVQFGQFGDDPKEEVMVLERILLQTIKFDLQVEHPYQFLLKYAKQLKGDKNKIQKLVQMAWTFVNDSLCTTLSLQWEPEIIAVAVMYLAGRLCKFEIQEWTSKPMYRRWWEQFVQDVPVDVLEDICHQILDLYSQGKQQMPH
modifications: biotin on the Avi tag (enzymatic, BirA)
